Where two headings read alike, the source gives them in different places.
Tests used:
[1] = molecular target: T1, rhesus monkey (Macaca mulatta) CD30 (rhesus monkey, UniProt P28908 19-595 (human entry)); assay: flow cytometry on Expi293F cells transfected with rhesus monkey CD30
T1 construct: Full-length construct expressed in Expi293F cells; also called mmCD30
T1 chain: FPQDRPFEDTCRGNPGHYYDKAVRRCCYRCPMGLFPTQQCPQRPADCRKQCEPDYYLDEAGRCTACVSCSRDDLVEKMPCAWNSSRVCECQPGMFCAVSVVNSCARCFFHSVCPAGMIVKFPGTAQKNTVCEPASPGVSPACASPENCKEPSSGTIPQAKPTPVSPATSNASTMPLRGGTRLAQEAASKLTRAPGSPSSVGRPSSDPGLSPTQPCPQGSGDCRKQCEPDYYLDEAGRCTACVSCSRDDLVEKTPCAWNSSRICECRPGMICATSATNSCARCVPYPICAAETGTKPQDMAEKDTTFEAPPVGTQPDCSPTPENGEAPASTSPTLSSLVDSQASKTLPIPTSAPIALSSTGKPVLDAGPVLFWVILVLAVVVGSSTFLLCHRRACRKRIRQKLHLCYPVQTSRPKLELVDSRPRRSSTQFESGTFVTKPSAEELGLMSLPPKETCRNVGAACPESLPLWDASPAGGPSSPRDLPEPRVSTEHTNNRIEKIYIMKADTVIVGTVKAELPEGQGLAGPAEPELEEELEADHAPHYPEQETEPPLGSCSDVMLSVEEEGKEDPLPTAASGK

human CD30 [2] = molecular target: T2, human CD30 (human, UniProt P28908 19-595); assay: cell-based or functional assay
T2 sequence: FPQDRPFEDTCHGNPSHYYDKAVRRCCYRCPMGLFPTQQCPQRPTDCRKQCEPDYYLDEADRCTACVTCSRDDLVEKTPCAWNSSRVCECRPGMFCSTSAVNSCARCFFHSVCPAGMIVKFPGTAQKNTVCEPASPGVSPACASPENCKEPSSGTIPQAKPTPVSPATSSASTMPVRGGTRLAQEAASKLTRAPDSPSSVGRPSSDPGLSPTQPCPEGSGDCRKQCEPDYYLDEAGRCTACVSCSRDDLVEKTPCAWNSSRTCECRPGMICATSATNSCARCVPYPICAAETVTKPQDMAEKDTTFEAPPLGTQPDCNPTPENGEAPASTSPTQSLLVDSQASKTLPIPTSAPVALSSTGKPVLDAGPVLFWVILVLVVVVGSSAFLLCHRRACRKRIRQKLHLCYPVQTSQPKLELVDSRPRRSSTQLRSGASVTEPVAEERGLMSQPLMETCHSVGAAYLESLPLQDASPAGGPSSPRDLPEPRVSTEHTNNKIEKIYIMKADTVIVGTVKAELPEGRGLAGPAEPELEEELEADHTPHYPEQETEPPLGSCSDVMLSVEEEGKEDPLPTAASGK

human CD30 [3] = molecular target: T2, human CD30; assay: flow cytometry on DEL cells
human CD30 [4] = molecular target: T2, human CD30; assay: flow cytometry on NCEB-1 cells
Experimental: (§1) Cells (3×10⁴ cells/well) were incubated in polystyrene 96-well round-bottom plates (Greiner bio-one, cat. no. 650180) with serial dilutions of antibodies (range 0.0046 to 10 μg/mL in 3-fold dilution steps) in 50 μL staining buffer at 4° C. for 30 min. After washing twice in staining buffer, cells were incubated with 50 μL secondary antibody at 4° C. for 30 min. […] Next, cells were washed twice in staining buffer, resuspended in 100 μL staining buffer supplemented with TO-PRO-3 iodide (Thermo Fisher Scientific; cat. no. T3605; 1:8000 dilution) and analyzed on a FACSCelesta flow cytometer (BD Biosciences, USA). Live cells were gated based on FSC/SSC and absence of TOPRO-3 staining. Binding curves were analyzed by non-linear regression of log-transformed data (sigmoidal dose-response with variable slope, four parameters) using GraphPad Prism V7.02 software (GraphPad Software, San Diego, Calif., USA).

[5] = molecular target: T1, rhesus monkey (Macaca mulatta) CD30; assay: flow cytometry on Expi293F cells transfected with rhesus monkey CD30
human CD30 [6] = molecular target: T2, human CD30; assay: flow cytometry on Expi293F cells transfected with human CD30
Experimental: Cells (3×10⁴ cells/well) were incubated in polystyrene 96-well round-bottom plates (Thermo Scientific, cat. no. 163320) with serial dilutions of antibodies (ranging from 0.0002 to 50 μg/mL in 4-fold dilution steps) in 50 μL staining buffer at 4° C. for 30 min. Experiments were performed in technical duplicate. After washing twice in staining buffer, cells were incubated in 50 μL secondary antibody at 4° C. for 30 min. […] Cells were washed twice in staining buffer, resuspended in 30 μL staining buffer containing 0.4% EDTA and the ToPro-3 viability marker (Invitrogen, cat. no. T3605) diluted 1:10,000. Cells were analyzed on an iQue Screener (Intellicyt Corporation, USA). Binding curves were analyzed using non-linear regression (sigmoidal dose-response with variable slope) using GraphPad Prism V9.0.0 software (GraphPad Software, San Diego, Calif., USA).

[7] = molecular target: T1, rhesus monkey (Macaca mulatta) CD30; assay: flow cytometry on Expi293F cells transfected with rhesus monkey CD30
[8] = molecular target: T1, rhesus monkey (Macaca mulatta) CD30; assay: as above
human CD30 [9] = molecular target: T2, human CD30; assay: flow cytometry on SU-DHL-1 cells
Experimental: Binding of CD3×CD30 bispecific antibodies to two CD30-expressing human tumor cell lines SU-DHL-1 (ALCL; ATCC, cat. no. ACC 356) and HDLM-2 (HL; ATCC, cat. no. CRL-2965) was analyzed by flow cytometry.
as §1

B1: bsG1-huCD3-FEAL×CD30-HeFi-I-FEAR (bispecific antibody, human IgG1, kappa, lambda)
heavy 1: not shown
light 1: not shown
heavy 2: EVKLVESGGGLVQPGGSLRLSCATSGFTFSDYYMNWVRQPPGKALEWLGFIRNKANGYTTEFSASVMGRFTISRDDSQSILYLQMNTLRAEDSATYYCARDPPYGNPHYYAMDYWGQGTSVTVSSASTKGPSVFPLAPSSKSTSGGTAALGCLVKDYFPEPVTVSWNSGALTSGVHTFPAVLQSSGLYSLSSVVTVPSSSLGTQTYICNVNHKPSNTKVDKRVEPKSCDKTHTCPPCPAPEFEGGPSVFLFPPKPKDTLMISRTPEVTCVVVAVSHEDPEVKFNWYVDGVEVHNAKTKPREEQYNSTYRVVSVLTVLHQDWLNGKEYKCKVSNKALPAPIEKTISKAKGQPREPQVYTLPPSREEMTKNQVSLTCLVKGFYPSDIAVEWESNGQPENNYKTTPPVLDSDGSFFLYSRLTVDKSRWQQGNVFSCSVMHEALHNHYTQKSLSLSPG
light 2: not shown
notes: Bispecific IgG1 by Fab-arm exchange of the two parental antibodies; also called BsIgG1-huCD3-FEAL×CD30-HeFi-I-FEAR
[1]
  binding result: no binding (tested: 10 µg/mL)
Human CD30 [2]
  cytotoxicity IC50 (µg/mL) average, Karpas-299 cells: 0.052 µg/mL
  cytotoxicity maximum lysis (%) average, Karpas-299 cells: 43%

B2: IgG1-CD30-MDX060-FERR (antibody)
heavy: QVQLQQWGAGLLKPSETLSLTCAVYGGSFSAYYWSWIRQPPGKGLEWIGDINHGGGTNYNPSLKSRVTISVDTSKNQFSLKLNSVTAADTAVYYCASLTAYWGQGSLVTVSSASTKGPSVFPLAPSSKSTSGGTAALGCLVKDYFPEPVTVSWNSGALTSGVHTFPAVLQSSGLYSLSSVVTVPSSSLGTQTYICNVNHKPSNTKVDKRVEPKSCDKTHTCPPCPAPEFERGPSVFLFPPKPKDTLMISRTPEVTCVVVDVSHEDPEVKFNWYVDGVEVHNAKTKPREEQYNSTYRVVSVLTVLHQDWLNGKEYKCKVSNKALPAPIEKTISKAKGQPREPQVYTLPPSREEMTKNQVSLTCLVKGFYPSDIAVEWESNGQPENNYKTTPPVLDSDGSFFLYSRLTVDKSRWQQGNVFSCSVMHEALHNHYTQKSLSLSPG
light: DIQMTQSPTSLSASVGDRVTITCRASQGISSWLTWYQQKPEKAPKSLIYAASSLQSGVPSRFSGSGSGTDFTLTISSLQPEDFATYYCQQYDSYPITFGQGTRLEIKRTVAAPSVFIFPPSDEQLKSGTASVVCLLNNFYPREAKVQWKVDNALQSGNSQESVTEQDSKDSTYSLSSTLTLSKADYEKHKVYACEVTHQGLSSPVTKSFNRGEC
notes: Monospecific, bivalent parental antibody; also called IgG1-huCD30-MDX060-FERR
Human CD30 [3]
  EC50 (read off the curve): ~0.09 µg/mL
Human CD30 [4]
  EC50 (read off the curve): ~0.05 µg/mL

B3: IgG1-CD30-HeFi-I-FEAR (antibody, V domains shown)
VH: EVKLVESGGGLVQPGGSLRLSCATSGFTFSDYYMNWVRQPPGKALEWLGFIRNKANGYTTEFSASVMGRFTISRDDSQSILYLQMNTLRAEDSATYYCARDPPYGNPHYYAMDYWGQGTSVTVSS
VL: DIVLTQSPASLAVSLGQRATISCRASKSVSASGYNYMHWYQQKAGQPPKLLIHLASNLESGVPARFSGSGSGTDFTLNIHPVEEEDASTYYCQHSGELPFTFGSGTKLEIKR
notes: Monospecific, bivalent parental antibody
[1]
  binding result: no binding (tested: 10 µg/mL)

B4: IgG1-CD30-HRS-3-FEAR (antibody, V domains shown)
VH: QVQLQQSGAELARPGASVKMSCKASGYTFTTYTIHWVRQRPGHDLEWIGYINPSSGYSDYNQNFKGKTTLTADKSSNTAYMQLNSLTSEDSAVYYCARRADYGNYEYTWFAYWGQGTTVTVSS
VL: DIVMTQSPKFMSTSVGDRVTVTCKASQNVGTNVAWFQQKPGQSPKVLIYSASYRYSGVPDRFTGSGSGTDFTLTISNVQSEDLAEYFCQQYHTYPLTFGGGTKLEINR
notes: as for B3
[5]
  EC50 (read off the curve): ~0.1 µg/mL
Human CD30 [6]
  EC50 (read off the curve): ~0.06 µg/mL

B5: bsG1-huCD3-FEAL×CD30-T405-FEAR (bispecific antibody, human IgG1, kappa, lambda)
heavy 1: not shown
light 1: not shown
heavy 2: QVQLQQIGAELVRPGASVKLSCKASGYTFNNYWINWVKQRPGQGLEWIGNIYPSDSRSNYNQKFKDKATLTVDKPSSTAYMQLSSPTSEDSAVYYCTLGSYWGQGTLVTVSAASTKGPSVFPLAPSSKSTSGGTAALGCLVKDYFPEPVTVSWNSGALTSGVHTFPAVLQSSGLYSLSSVVTVPSSSLGTQTYICNVNHKPSNTKVDKRVEPKSCDKTHTCPPCPAPEFEGGPSVFLFPPKPKDTLMISRTPEVTCVVVAVSHEDPEVKFNWYVDGVEVHNAKTKPREEQYNSTYRVVSVLTVLHQDWLNGKEYKCKVSNKALPAPIEKTISKAKGQPREPQVYTLPPSREEMTKNQVSLTCLVKGFYPSDIAVEWESNGQPENNYKTTPPVLDSDGSFFLYSRLTVDKSRWQQGNVFSCSVMHEALHNHYTQKSLSLSPG
light 2: DVVMTQTPLTLSVTIGQPASISCKSSQSLSDSDGKTYLNWLLQRPGQSPKRLIYLVSKLDSGVPDRFTGSGSGTDFTLKISRVEAEDLGVYYCWQGAHFPRTFGGGTKLEIKRTVAAPSVFIFPPSDEQLKSGTASVVCLLNNFYPREAKVQWKVDNALQSGNSQESVTEQDSKDSTYSLSSTLTLSKADYEKHKVYACEVTHQGLSSPVTKSFNRGEC
notes: Bispecific IgG1 by Fab-arm exchange of the two parental antibodies; also called bsIgG1-huCD3-FEAL×CD30-T405-FEAR
[7]
  binding result: binds
Human CD30 [2]
  cytotoxicity IC50 (µg/mL) average, Karpas-299 cells: 0.078 µg/mL
  cytotoxicity maximum lysis (%) average, Karpas-299 cells: 41.7%

B6: IgG1-CD30-hAC10-FEAR (antibody, V domains shown)
VH: QVQLVQSGAEVKKPGASVKVSCKASGYTFTDYYITWVRQAPGQGLEWMGWIYPGSGNTKYNEKFKGRVTMTRDTSISTAYMELSRLRSDDTAVYYCANYGNYWFAYWGQGTLVTVSS
VL: DIVMTQSPDSLAVSLGERATINCKASQSVDFDGDSYMNWYQQKPGQPPKLLIYAASNLESGVPDRFSGSGSGTDFTLTISSLQAEDVAVYYCQQSNEDPWTFGQGTKVEIKR
notes: as for B3
[8]
  binding result: binds
Human CD30 [9]
  EC50 (read off the curve): ~0.05 µg/mL

— US20230132049A1 (Genmab, published 2023)
